Publication PMC3061058 (Nucleic Acids Research, 2010)
Read-outs that look alike come from different tables or passages of the source.

B1: rgyr_Δlatch (reverse gyrase lacking the latch region) (Thermotoga maritima MSB8; DEL389-459/INS388G) (protein)
chain: MAVNSKYHHSCINCGGLNTDERNERGLPCEVCLPEDSPSDIYRALLERKTLKEYRFYHEFWNEYEDFRSFFKKKFGKDLTGYQRLWAKRIVQGKSFTMVAPTGVGKTTFGMMTALWLARKGKKSALVFPTVTLVKQTLERLQKLADEKVKIFGFYSSMKKEEKEKFEKSFEEDDYHILVFSTQFVSKNREKLSQKRFDFVFVDDVDAVLKASRNIDTLLMMVGIPEEIIRKAFSTIKQGKIYERPKNLKPGILVVSSATAKPRGIRPLLFRDLLNFTVGRLVSVARNITHVRISSRSKEKLVELLEIFRDGILIFAQTEEEGKELYEYLKRFKFNVGETWSEFEKNFEDFKVGKINILIGVQAYYGKLTRGVDLPERIKYVIFWGTPSGPDVYTYIQASGRSSRILNGVLVKGVSVIFEEDEEIFESLKTRLLLIAEEEIIEEAEANWKELVHEVEESRRRSERELTDTSRSLLIIVESPTKAETLSRFLGRASSRKERNIIVHEAVTGEGVILFTATRGHVYDLVTKGGIHGVEEENGKFVPVYNSLKRCRDCGYQFTEDRDECPVCSSKNIDDKTETLRALREISLEADEILVATDPDVEGEKISWDVTQYLLPSTRSLRRIEMHEITRYGFKKARESVRFVDFNLVKAQIVRRVQDRWIGFELSGKLQKRFGRSNLSAGRVQSTVLGWIVEREEEYKKSEKDFTLLVLENGVNLEVEGKIADDVVTVVELQEAEEEKNPLPPYTTSSALSEISQKLRLGVQEVMDILQDLFEKGFITYHRTDSTRISLEGQNVARTYLRKIGKEDIFMGRSWSTEGAHEAIRPVKPIDARELEEMIEEGLIADLTKKHLRVYELIFNRFLASQSAAVKVKKQIVTVDVDGKRMGIEQIVEILRDGWNLFVPLTVSPRFEHRTYKIKEKKFYKKHTVPLFTQASIVEEMKKRGIGRPSTYAKIVEVLFRRGYVYEDKYKRVRPTRFGVMVYSYLKERYEKYVTEETTRRLEEIMDKVERGEEDYQATLRLLYEEIKSLMEEG
B2: 60 b ssDNA (ssDNA)
DNA: AAGCCAAGCTTCTAGAGTCAGCCCGTGATATTCATTACTTCTTATCCTAGGATCCCCGTT
B3: 60 bp dsDNA (dsDNA)
DNA 1: B2 DNA
DNA 2: AACGGGGATCCTAGGATAAGAAGTAATGAATATCACGGGCTGACTCTAGAAGCTTGGCTT
B4: rgyr_hel_Δlatch (helicase-like domain lacking the latch) (Thermotoga maritima MSB8; DEL389-459/INS388G) (protein)
chain: EFWNEYEDFRSFFKKKFGKDLTGYQRLWAKRIVQGKSFTMVAPTGVGKTTFGMMTALWLARKGKKSALVFPTVTLVKQTLERLQKLADEKVKIFGFYSSMKKEEKEKFEKSFEEDDYHILVFSTQFVSKNREKLSQKRFDFVFVDDVDAVLKASRNIDTLLMMVGIPEEIIRKAFSTIKQGKIYERPKNLKPGILVVSSATAKPRGIRPLLFRDLLNFTVGRLVSVARNITHVRISSRSKEKLVELLEIFRDGILIFAQTEEEGKELYEYLKRFKFNVGETWSEFEKNFEDFKVGKINILIGVQAYYGKLTRGVDLPERIKYVIFWGTPSGPDVYTYIQASGRSSRILNGVLVKGVSVIFEEDEEIFESLKTRLLLIAEEEIIEEAEANWKELVHEVEESRRRSERELTDTSR

Assays:
[1] = molecular target: T1, rgyr (reverse gyrase, full-length wild type) (Thermotoga maritima, UniProt O51934); experiment: fluorescence equilibrium titration; assay type: binding
T1 sequence (O51934 1-1104): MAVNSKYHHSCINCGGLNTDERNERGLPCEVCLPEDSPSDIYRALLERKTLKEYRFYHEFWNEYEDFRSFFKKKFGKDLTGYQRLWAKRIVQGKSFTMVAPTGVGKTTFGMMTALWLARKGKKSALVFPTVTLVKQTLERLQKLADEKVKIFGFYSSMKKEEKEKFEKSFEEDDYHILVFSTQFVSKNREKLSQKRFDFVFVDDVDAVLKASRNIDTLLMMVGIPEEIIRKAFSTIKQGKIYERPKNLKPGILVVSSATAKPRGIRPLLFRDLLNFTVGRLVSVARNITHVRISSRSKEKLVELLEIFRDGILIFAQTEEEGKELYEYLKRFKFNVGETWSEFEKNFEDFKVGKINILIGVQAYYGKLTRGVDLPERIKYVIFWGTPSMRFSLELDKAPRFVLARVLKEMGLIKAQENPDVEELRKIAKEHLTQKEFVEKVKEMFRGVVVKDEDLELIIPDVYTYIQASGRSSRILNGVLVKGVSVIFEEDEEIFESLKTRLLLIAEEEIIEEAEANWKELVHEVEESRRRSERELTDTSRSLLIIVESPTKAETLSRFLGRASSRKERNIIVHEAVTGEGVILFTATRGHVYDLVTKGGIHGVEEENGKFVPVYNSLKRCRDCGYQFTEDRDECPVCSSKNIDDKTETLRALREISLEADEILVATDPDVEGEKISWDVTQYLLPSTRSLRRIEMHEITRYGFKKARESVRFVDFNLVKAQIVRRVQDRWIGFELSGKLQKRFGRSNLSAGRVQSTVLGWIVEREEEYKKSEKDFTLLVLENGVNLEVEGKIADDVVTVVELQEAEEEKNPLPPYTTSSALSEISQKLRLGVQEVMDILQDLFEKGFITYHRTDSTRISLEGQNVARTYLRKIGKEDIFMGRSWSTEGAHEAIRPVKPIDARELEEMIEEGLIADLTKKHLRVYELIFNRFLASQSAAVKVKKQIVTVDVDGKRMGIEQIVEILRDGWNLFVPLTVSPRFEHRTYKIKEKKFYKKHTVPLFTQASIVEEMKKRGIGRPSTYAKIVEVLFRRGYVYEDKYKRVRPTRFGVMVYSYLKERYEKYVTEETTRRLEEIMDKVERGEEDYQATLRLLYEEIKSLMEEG

[2] = molecular target: rgyr_Δlatch (reverse gyrase lacking the latch region) (Thermotoga maritima, UniProt O51934, DEL389-459/INS388G); experiment: biochemical
purified protein = substrate: Nc1ncnc2c1ncn2[C@@H]1O[C@H](COP(=O)(O)OP(=O)(O)OP(=O)(O)O)[C@@H](O)[C@H]1O; experiment: purified protein; settings: no DNA, pH 7.5, 10 mM MgCl2, 0.15 M NaCl
isolated latch (H3) = molecular target: T2, isolated latch (H3) (Thermotoga maritima, UniProt O51934 388-459); experiment: fluorescence anisotropy
T2 sequence: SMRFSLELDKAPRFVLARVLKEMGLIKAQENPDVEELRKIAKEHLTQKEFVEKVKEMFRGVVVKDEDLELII

rgyr_hel_Δlatch = molecular target: T3, rgyr_hel_Δlatch (Thermotoga maritima, UniProt O51934 59-388+=G+460-541, internal_change); experiment: fluorescence anisotropy
T3 sequence: B4 chain

rgyr_Δlatch [3] = molecular target: T4, rgyr_Δlatch (Thermotoga maritima, UniProt O51934 1-1104, del389-459); experiment: fluorescence anisotropy
T4 sequence: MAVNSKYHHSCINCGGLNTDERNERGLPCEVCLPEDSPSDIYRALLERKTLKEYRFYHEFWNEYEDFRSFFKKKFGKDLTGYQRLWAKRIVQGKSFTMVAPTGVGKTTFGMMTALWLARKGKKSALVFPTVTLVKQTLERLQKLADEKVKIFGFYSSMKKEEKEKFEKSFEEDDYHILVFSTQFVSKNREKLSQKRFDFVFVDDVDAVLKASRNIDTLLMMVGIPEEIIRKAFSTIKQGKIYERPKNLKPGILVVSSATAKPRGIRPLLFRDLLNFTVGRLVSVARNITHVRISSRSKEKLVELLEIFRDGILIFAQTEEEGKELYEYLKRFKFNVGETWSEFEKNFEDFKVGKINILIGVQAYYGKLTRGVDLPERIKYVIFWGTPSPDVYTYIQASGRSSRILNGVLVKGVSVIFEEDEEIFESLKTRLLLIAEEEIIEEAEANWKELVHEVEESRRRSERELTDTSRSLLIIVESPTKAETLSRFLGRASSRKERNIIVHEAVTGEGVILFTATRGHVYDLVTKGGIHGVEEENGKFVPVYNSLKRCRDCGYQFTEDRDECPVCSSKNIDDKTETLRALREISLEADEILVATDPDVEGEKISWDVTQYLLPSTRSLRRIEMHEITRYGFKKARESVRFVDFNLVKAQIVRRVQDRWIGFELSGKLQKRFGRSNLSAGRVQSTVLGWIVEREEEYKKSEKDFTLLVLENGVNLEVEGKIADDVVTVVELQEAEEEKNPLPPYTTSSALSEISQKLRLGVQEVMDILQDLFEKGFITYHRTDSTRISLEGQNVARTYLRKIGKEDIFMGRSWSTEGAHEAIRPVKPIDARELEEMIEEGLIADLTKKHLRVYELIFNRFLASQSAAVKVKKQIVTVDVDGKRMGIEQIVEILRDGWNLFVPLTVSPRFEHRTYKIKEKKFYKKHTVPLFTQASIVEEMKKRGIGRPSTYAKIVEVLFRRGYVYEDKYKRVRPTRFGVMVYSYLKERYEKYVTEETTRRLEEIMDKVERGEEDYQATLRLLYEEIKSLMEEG

rgyr_Δlatch [4] = molecular target: T4, rgyr_Δlatch; experiment: fluorescence anisotropy; remark: listed apart in the source

Molecule	Km (purified protein) [µM]	kcat (purified protein) [s⁻¹]	Kd (isolated latch (H3)) [µM]	Kd (rgyr_hel_Δlatch) [µM]	further results
Nc1ncnc2c1ncn2[C@@H]1O[C@H](COP(=O)(O)OP(=O)(O)NP(=O)(O)O)[C@@H](O)[C@H]1O [ADPNP]					Kd [1]: 10 ± 0.8 µM; Kd [2]: 4.7 ± 0.8 µM
B1	26.5 ± 3.5	0.018			
B2			64 ± 29	0.42 ± 0.07	Kd (rgyr_Δlatch [3]): 0.033 ± 0.077 µM
B3			78 ± 39	21 ± 5	Kd (rgyr_Δlatch [4]): 0.096 ± 0.019 µM
B4	67 ± 18	0.02			
